Experiments:
[1] = test system: STAT5 Y647; test: Epo signaling: STAT5 phosphorylation by flow cytometry in transduced T cells; type: cell-based, human; settings: for Epo signaling (pSTAT5) after JAK inhibitor: concentration that abrogated IL-2 signal
Experimental: To detect Epo signaling, cells were incubated in cytokine-free media for 2 hours before stimulated with Epo (0.01-10 IU/mL) at 37° C. for 15 minutes to 24 hours. In some experiments, cells were treated with 0.1-10 μM of ruxolitinib (Selleckchem) or 0.5-5 nM tofacitinib (Santa Cruz Biotechnology, Santa Cruz, CA) for 1 hour prior to Epo stimulation. […] In some experiments, the effects of human Epo were compared to those of murine Epo (Biolegend, San Diego, CA).

[2] = test system: CD19+ Nalm6 ALL cells; test: Xenograft: Nalm6-luciferase cells followed 2 days later by EpoRm-CAR T cells, with or without Epo; type: in vivo, NSG mice; settings: 100 IU Epo i.p. 3 times a week for 2 weeks
Experimental: In another model to test anti-leukemic activity of T cells, Nalm6 cells transduced with luciferase were injected i.v. (5×10^5 cells per mouse), followed 2 days later by T cells expressing EpoRm-CAR (2×10^7 cells per mouse, i.v.), while control mice received no T cells; some mice received Epo (100 IU) 3 times per week i.p. Tumor cell load was determined with the Xenogen IVIS-200 System (Perkin Elmer, Waltham, MA) after injecting aqueous D-luciferin potassium salt (150 μg/g body weight; Perkin Elmer) i.p. Luminescence was analyzed with Living Image 3.0 software. Mice were euthanized when the luminescence reached 1×10^10 photons per second, or earlier if there were physical signs warranting euthanasia.

[3] = test system: Epo; test: Binding of biotinylated Epo to transduced Jurkat cells
Excerpt: Biotinylated Epo was visualized with streptavidin-PE (Jackson ImmunoResearch).

[4] = test system: T lymphocytes; test: T cell survival/recovery in culture with or without Epo and IL-2; type: cell-based, human
Experimental: To assess cell survival, T cells were cultured in absence of exogenous cytokines, with or without Epo (4-10 IU/mL) in a flat bottom 96-well or 24-well plate (Cellstar). For cell proliferation, T cells were co-cultured with target cells (OP-1 cells) at 1:1 effector-to-target (E:T) ratio in a flat bottom 96-well plate; Epo (10 IU/mL) was added every two days. Target cells, irradiated (100 Gy) or treated with Streck cell preservative (Streck Laboratories, Omaha, NE) to inhibit growth, were added at the beginning of the cultures, and every 7 days thereafter. In some experiments, low dose (10 IU/mL) or high dose (100 IU/mL) IL-2 was added to the culture as well. The number of GFP+ T cells was measured by flow cytometry.

[5] = test system: Jurkat cells; test: Jurkat cell growth curves; type: cell-based, human
[6] = test system: T lymphocytes; test: Cell cycle analysis (EdU DNA synthesis) after Epo stimulation; type: cell-based, human; settings: exposure to Epo for 24 hours
Experimental: To determine the effect of Epo on cell cycle, cells were cultured in cytokine-free media for 3 days followed by stimulation with 10 IU/mL of Epo for 1 day. DNA synthesis was measured by Click-iT EdU AF647 Flow Cytometry Assay Kit (Thermo Fisher Scientific), and DNA content was measured with FxCycle Violet Stain (Thermo Fisher Scientific).

[7] = EpoRm-CAR T cells, Epo 10 IU/mL

N#CC[C@H](C1CCCC1)n1cc(-c2ncnc3[nH]ccc23)cn1 [ruxolitinib, reference compound]
Epo signaling (pSTAT5) after JAK inhibitor [1, 7]: no effect

Epo: recombinant human Epo (Thermo Fisher Scientific), glycoprotein cytokine
pSTAT5 levels induced ([1]; EpoRm-CAR T cells, 1 IU/mL of Epo vs 50 IU/mL IL-2): significantly higher | effect of Epo injection on anti-leukemic activity [2]: did not affect the anti-leukemic activity

C[C@@H]1CCN(C(=O)CC#N)C[C@@H]1N(C)c1ncnc2[nH]ccc12 [tofacitinib, reference compound]
Epo signaling (pSTAT5) after JAK inhibitor [1, 7]: no effect | STAT5 Y647 phosphorylation caused by IL-2 after JAK inhibitor ([1]; EpoRm-CAR T cells, IL-2 100 IU/mL): completely abrogated

B1: EpoR: wild-type human erythropoietin receptor (SEQ ID NO: 2) expressed in T cells by MSCV retroviral transduction (protein)
chain: MDHLGASLWPQVGSLCLLLAGAAWAPPPNLPDPKFESKAALLAARGPEELLCFTERLEDLVCFWEEAASAGVGPGNYSFSYQLEDEPWKLCRLHQAPTARGAVRFWCSLPTADTSSFVPLELRVTAASGAPRYHRVIHINEVVLLDAPVGLVARLADESGHVVLRWLPPPETPMTSHIRYEVDVSAGNGAGSVQRVEILEGRTECVLSNLRGRTRYTFAVRARMAEPSFGGFWSAWSEPVSLLTPSDLDPLILTLSLILVVILVLLTVLALLSHRRALKQKIWPGIPSPESEFEGLFTTHKGNFQLWLYQNDGCLWWSPCTPFTEDPPASLEVLSERCWGTMQAVEPGTDDEGPLLEPVGSEHAQDTYLVLDKWLLPRNPPSEDLPGPGGSVDIVAMDEGSEASSCSSALASKPSPEGASAASFEYTILDPSSQLLRPWTLCPELPPTPPHLKYLYLVVSDSGISTDYSSGDSQGAQGGLSDGPYSNPYENSLIPAAEPLPPSYVACS
Epo binding [3]: could bind Epo | survival in culture ([4]; Epo 4 IU/mL, absence of exogenous IL-2): supported their survival in culture | long-term cell growth of Jurkat cells [5]: does not adversely affect

B2: EpoRm: truncated mutant Epo receptor, codon 439 TGG (Trp) changed to TAG (stop), SEQ ID NO: 6, expressed in T cells (protein)
chain: MDHLGASLWPQVGSLCLLLAGAAWAPPPNLPDPKFESKAALLAARGPEELLCFTERLEDLVCFWEEAASAGVGPGNYSFSYQLEDEPWKLCRLHQAPTARGAVRFWCSLPTADTSSFVPLELRVTAASGAPRYHRVIHINEVVLLDAPVGLVARLADESGHVVLRWLPPPETPMTSHIRYEVDVSAGNGAGSVQRVEILEGRTECVLSNLRGRTRYTFAVRARMAEPSFGGFWSAWSEPVSLLTPSDLDPLILTLSLILVVILVLLTVLALLSHRRALKQKIWPGIPSPESEFEGLFTTHKGNFQLWLYQNDGCLWWSPCTPFTEDPPASLEVLSERCWGTMQAVEPGTDDEGPLLEPVGSEHAQDTYLVLDKWLLPRNPPSEDLPGPGGSVDIVAMDEGSEASSCSSALASKPSPEGASAASFEYTILDPSSQLLRP
functionality of EpoRm (pSTAT5) when expressed with CAR ([1]; Epo 10 IU/mL, 15 minutes): maintained | durability of STAT5 phosphorylation ([1]; Epo 10 IU/mL, time course): more durable | recovery of T cells ([4]; 7 days, Epo 10 IU/mL added to IL-2 100 IU/mL vs IL-2, 4 donors): significantly higher | expansion of T cells ([4]; 14 days, IL-2 100 IU/mL with Epo 10 IU/mL): performed better than EpoR cells | cell numbers in culture ([4]; Epo added, absence of IL-2): yielding higher cell numbers | DNA synthesis elicited by Epo [6]: stimulation was higher | long-term cell growth of Jurkat cells [5]: does not adversely affect
